Source: US20260125477A1 (BEIJING MABWORKS BIOTECH, published 2026)
Each block holds one binder with its values, some of them ahead of it.

Columns and labels:
[1] = molecular target: T1, recombinant human B7-H3 (4Ig) protein, with His tag (human, UniProt Q5ZPR3 29-461, limits assumed); experiment: SPR (Biacore T200), antibody captured on Protein A chip, His-tagged antigen injected
T1 construct: Bought protein; also called human B7-H3 (4Ig)/B7-H3b protein
T1 sequence (looked up): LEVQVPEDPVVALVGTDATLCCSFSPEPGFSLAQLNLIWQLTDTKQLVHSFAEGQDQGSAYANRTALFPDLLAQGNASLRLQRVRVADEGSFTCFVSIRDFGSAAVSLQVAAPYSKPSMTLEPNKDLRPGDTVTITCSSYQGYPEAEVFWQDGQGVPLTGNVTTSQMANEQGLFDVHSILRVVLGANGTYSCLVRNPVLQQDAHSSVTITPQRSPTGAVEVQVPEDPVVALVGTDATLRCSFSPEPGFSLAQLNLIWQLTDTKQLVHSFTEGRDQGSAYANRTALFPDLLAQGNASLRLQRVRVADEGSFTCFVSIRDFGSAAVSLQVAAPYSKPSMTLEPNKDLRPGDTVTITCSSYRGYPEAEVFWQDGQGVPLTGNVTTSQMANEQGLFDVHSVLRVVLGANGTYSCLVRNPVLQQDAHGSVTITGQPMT
Method: (§1) The fully human anti-human B7-H3 antibodies were tested for their binding affinity to human B7-H3 (4Ig), human B7-H3 (2Ig), monkey B7-H3 (monkey B7-H3/CD276 protein, with His tag, Cat #: B73-C52Ha, ACROBiosystems) and mouse B7-H3 protein (mouse B7-H3/CD276 protein, with His tag, Cat #: B73-M52H4, ACROBiosystems) by surface plasmon resonance (SPR) using Biacore T200 biosensor (Biacore, US) provided with a pre-fixed Protein A sensor chip. Briefly, the anti-human B7-H3 antibodies (1 μg/mL) were injected to the Biacore T200 biosensor at 10 μL/min for 20 sec, to achieve the desired protein density (100±30 RU).
(§2) The data as generated was analyzed using Biacore Insight V2.0.1 5.12933 with the one-to-one Langmuir binding model. The association rate (kₒₙ) and dissociation rate (koff) were obtained at the same time. The affinity was calculated as the quotient of the two kinetic rate constants (KD=koff/kₒₙ).

[2] = molecular target: T2, recombinant human B7-H3 (2Ig) protein, with His tag (human, UniProt Q5ZPR3-2 29-245, limits assumed); experiment: as above
T2 construct: Bought protein; also called human B7-H3/CD276 protein
T2 sequence (looked up): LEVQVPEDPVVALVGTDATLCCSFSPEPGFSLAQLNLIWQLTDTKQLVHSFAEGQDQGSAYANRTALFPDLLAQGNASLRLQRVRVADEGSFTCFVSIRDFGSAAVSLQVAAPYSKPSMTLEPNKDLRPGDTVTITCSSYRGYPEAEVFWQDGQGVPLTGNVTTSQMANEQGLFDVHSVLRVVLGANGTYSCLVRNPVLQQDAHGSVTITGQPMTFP
Method: as §1, §2

[3] = molecular target: T3, recombinant human CD80 protein (human B7-1/CD80 protein, with His tag) (human, UniProt P33681 35-242); experiment: SPR (Biacore T200), antibody captured on Protein A chip
T3 construct: Bought protein
T3 sequence (looked up): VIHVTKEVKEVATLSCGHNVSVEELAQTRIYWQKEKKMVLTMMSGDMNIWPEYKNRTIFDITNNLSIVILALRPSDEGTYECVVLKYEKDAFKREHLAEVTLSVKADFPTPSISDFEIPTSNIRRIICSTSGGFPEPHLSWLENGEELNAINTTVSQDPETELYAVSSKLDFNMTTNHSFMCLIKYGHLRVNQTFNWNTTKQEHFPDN
Method: (§3) The anti-human B7-H3 antibodies were tested for their binding capability to B7 family proteins by SPR using Biacore T200 biosensor (Biacore, US) provided with a pre-fixed Protein A sensor chip.
(§4) The dissociation was monitored for 600 sec. The data was analyzed using Biacore 8k evaluation software version 3.0, to obtain the binding responses, and the protein concentration-binding response curves were plotted, to determine the cross-reaction of the anti-human B7-H3 antibodies to the B7 family proteins.

[4] = molecular target: T4, human PD-L1/B7-H1 protein, with His tag (human, UniProt Q9NZQ7 19-238); experiment: as above
T4 construct: Bought protein
Method: as §3, §4

[5] = molecular target: T5, human B7-H7/HHLA2 protein, with His tag (MALS verified) (human, UniProt Q9UM44 23-344, limits assumed); experiment: as above
T5 construct: Bought protein
T5 sequence (looked up): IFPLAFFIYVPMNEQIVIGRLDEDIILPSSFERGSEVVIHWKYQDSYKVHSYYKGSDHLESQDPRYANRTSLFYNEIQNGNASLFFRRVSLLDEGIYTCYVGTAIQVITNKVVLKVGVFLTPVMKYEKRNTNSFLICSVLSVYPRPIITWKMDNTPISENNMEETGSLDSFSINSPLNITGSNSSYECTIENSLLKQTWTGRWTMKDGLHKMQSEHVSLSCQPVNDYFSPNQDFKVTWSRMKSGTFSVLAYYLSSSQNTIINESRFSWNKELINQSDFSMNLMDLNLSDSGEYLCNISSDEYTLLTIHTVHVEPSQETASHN
Method: as §3, §4

[6] = molecular target: T3, recombinant human CD80 protein (human …); experiment: SPR (Biacore T200), antibody captured on Protein A chip, response at 200 nM antigen
Method: as §3, §4

[7] = molecular target: T6, human B7-2/CD86 protein, with His tag (human, UniProt P42081 26-247, limits assumed); experiment: as above
T6 construct: Bought protein
T6 sequence (looked up): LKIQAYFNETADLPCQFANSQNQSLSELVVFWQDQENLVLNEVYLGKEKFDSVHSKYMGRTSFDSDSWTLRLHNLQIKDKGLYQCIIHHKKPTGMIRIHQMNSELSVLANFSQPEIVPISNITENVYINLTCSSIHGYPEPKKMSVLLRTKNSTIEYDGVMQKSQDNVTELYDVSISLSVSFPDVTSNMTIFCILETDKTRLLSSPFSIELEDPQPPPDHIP
Method: as §3, §4

[8] = molecular target: T7, monkey B7-H3/CD276 protein, with His tag (monkey); experiment: SPR (Biacore T200), antibody captured on Protein A chip, His-tagged antigen injected
T7 construct: Bought protein
Method: as §1, §2

T4 sequence (Q9NZQ7 19-238 limits assumed): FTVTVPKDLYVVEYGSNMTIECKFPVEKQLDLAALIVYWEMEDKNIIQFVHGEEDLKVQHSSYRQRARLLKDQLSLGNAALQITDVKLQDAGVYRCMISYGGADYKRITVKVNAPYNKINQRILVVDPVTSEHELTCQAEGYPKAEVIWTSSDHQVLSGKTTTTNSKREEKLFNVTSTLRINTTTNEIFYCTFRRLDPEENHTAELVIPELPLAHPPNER

- Kd [1]: 1.01 nM
- koff [1]: 0.00011 s⁻¹
- kon [1]: 109000 M⁻¹ s⁻¹
- Kd [2]: 10.4 nM
- koff [2]: 0.000422 s⁻¹
- kon [2]: 40500 M⁻¹ s⁻¹
- binding result [3]: no binding (tested: 200 nM)
- binding result [4]: no binding (tested: 200 nM)
- binding result [5]: no binding (tested: 200 nM)
- Response (RU) [6]: 0.7 RU
- Response (RU) [7]: 0.5 RU
B1: 10F5 (antibody, human IgG1, kappa, V domains shown)
VH: QVQLVQSGAEVKKPGSSVKVSCKASGGTFSSQAISWVRQAPGQGLEWMGRIIPMLGIGDYAQSFQGRVTITADKSTSTAYLEVSSLGSEDTAVYYCAREGIAALGTNYYYGMDVWGQGTAVTVSS
VL: EIVMTQSPSSVSASVGDRVTITCRASQGISRWLAWYQQKPGKAPKLLIYVASSLQSGVPSRFSGSGSGTDFTLTISSLQPEDFATYYCQQANSFPFTFGPGTKVDIRR
notes: also called Ab10F5

- Kd [8]: 0.966 nM
- koff [8]: 0.000223 s⁻¹
- kon [8]: 231000 M⁻¹ s⁻¹
- Kd [1]: 1.11 nM
- koff [1]: 0.000239 s⁻¹
- kon [1]: 216000 M⁻¹ s⁻¹
- Kd [2]: 275 nM
- koff [2]: 0.0203 s⁻¹
- kon [2]: 73700 M⁻¹ s⁻¹
- Response (RU) [6]: -1.8 RU
- Response (RU) [7]: -1.5 RU
B2: Enoblituzumab (antibody, human IgG1, kappa, V domains shown)
VH: EVQLVESGGGLVQPGGSLRLSCAASGFTFSSFGMHWVRQAPGKGLEWVAYISSDSSAIYYADTVKGRFTISRDNAKNSLYLQMNSLRDEDTAVYYCGRGRENIYYGSRLDYWGQGTTVTVSS
VL: DIQLTQSPSFLSASVGDRVTITCKASQNVDTNVAWYQQKPGKAPKALIYSASYRYSGVPSRFSGSGSGTDFTLTISSLQPEDFATYYCQQYNNYPFTFGQGTKLEIKR
notes: Humanized anti-B7-H3 antibody of MacroGenics with optimised Fc, used as the positive control; also called AbEno; enoblituzumab-IgG1-Mut

- Kd [8]: 1.14 nM
- koff [8]: 0.000295 s⁻¹
- kon [8]: 258000 M⁻¹ s⁻¹
- Kd [1]: 1.26 nM
- koff [1]: 0.00031 s⁻¹
- kon [1]: 247000 M⁻¹ s⁻¹
- Kd [2]: 51.5 nM
- koff [2]: 0.00653 s⁻¹
- kon [2]: 127000 M⁻¹ s⁻¹
- Response (RU) [6]: 0.6 RU
- Response (RU) [7]: 0.3 RU
B3: 6B5 (antibody, human IgG1, kappa, V domains shown)
VH: QVQLVESGPGLVKPSQTLSLTCTVSDGSISSGGYYWSWIRQHPGKGLEWIGYIYYSGGTYYSPSLKSRVTISVDTSKNQFSLKLTSVTAADTAVYYCARRAGYSSSFDSWGQGILVTVSS
VL: EIVLTQSPLSLPVTPGEPASISCRSSQSLLYSNGYTYLDWYLQKPGQSPQFLIYLGFNRASGVPDRFSGSGSGTDFTLKISRVEAEDVGVYYCMQGLQTPYTFGQGTKLEIKR
notes: also called 6B5-WT; Ab6B5

- Kd [8]: 49.5 nM
- koff [8]: 0.0167 s⁻¹
- kon [8]: 337000 M⁻¹ s⁻¹
- Kd [1]: 1.11 nM
- koff [1]: 0.000291 s⁻¹
- kon [1]: 263000 M⁻¹ s⁻¹
- Kd [2]: 386 nM
- koff [2]: 0.0588 s⁻¹
- kon [2]: 152000 M⁻¹ s⁻¹
- binding result [3]: no binding (tested: 200 nM)
- binding result [4]: no binding (tested: 200 nM)
- binding result [5]: no binding (tested: 200 nM)
- Response (RU) [6]: 0.2 RU
- Response (RU) [7]: -0.2 RU
B4: 10D7 (antibody, human IgG1, kappa, V domains shown)
VH: QVQLVQSGPGLVKPSETLSLTCTVSGGSISRSSYYWGWIRQPPGKGLEWIGNIFYAGSTYYNPSLKSRVTISVDTSKNQFSLKLSSVTAADTAVYYCARRITGTTGWFDPWGQGTLVTVSS
VL: DIQLTQSPSSLSASVGDRVTITCRASQGIRNDLGWYQQKPGKAPKLLIYAASTLQSGVPSRFSGSGSGTDFTLTISSLQPEDFATYYCLQDYNYPRTFGQGTKVEIKR
notes: also called 10D7-WT; Ab10D7
